According to US20150023989A1, “NEW ANTIBODY DRUG CONJUGATES (ADCS) AND THE USE THEREOF” (SEATTLE GENETICS, INC., priority 2011, published 2015):

How the values were obtained:
Assay in all cases: ELISA cross-reactivity of M048-D01 Fab
Conditions in all cases: Fab 1 μg/ml, TRAIL-Fc wells as background
hFGFR2β-Fc (IIIc) = format: binding, Human
Method: (§1) The cross-reactivity of the human antibodies M048-D01-hIgG1 and M048-D01-hIgG1-b of the present application was determined using the parental Fab fragment M048-D01 (comprising Vh: SEQ ID NO: 21 and Vl: SEQ ID NO: 22).
(§2) All of the variants took the form of Fc fusion proteins in carrier-free preparations. The proteins were biotinylated according to manufacturer instructions, using a 2-fold molar excess of biotin-LC-NHS (Pierce; Cat. No. 21347) and desalted using Zeba desalting columns (Pierce; Cat. No. 89889). For the ELISA, 96-well plates pretreated with streptavidin (Pierce, 15500) were loaded overnight at 4° C. with 1 μg/ml biotinylated protein. Wells which had been loaded with biotinylated TRAIL-Fc served as a reference. The next day the plates were washed 3× with PBST (1×PBS admixed with 0.05% Tween 20 (Sigma, P7949)), treated with blocking buffer (PBST admixed with 3% BSA (Sigma A4503)), and again washed three times with PBST. 100 μl of the purified Fab (1 μg/ml) were added, and incubation was carried out at room temperature for 1 hour. […] The colour reaction was monitored at 450 nm in a plate reader (Tecan). The signal strengths of the wells containing TRAIL-Fc were used as background values, and the signal-to-background ratios were calculated as summarized in Table 3.

hFGFR1β-Fc (IIIb) = format: binding, Human
Method: as §1, §2

mFGFR2β-Fc (IIIc) = format: binding, Mouse
Method: as §1, §2

hFGFR2α-Fc (IIIb) = target: T1, hFGFR2α-Fc (IIIb) (Homo sapiens, UniProt P21802); format: binding
T1 construct: purchased RnD Systems 663-FR
Method: as §1
(§3) All of the variants took the form of Fc fusion proteins in carrier-free preparations. The proteins were biotinylated according to manufacturer instructions, using a 2-fold molar excess of biotin-LC-NHS (Pierce; Cat. No. 21347) and desalted using Zeba desalting columns (Pierce; Cat. No. 89889). For the ELISA, 96-well plates pretreated with streptavidin (Pierce, 15500) were loaded overnight at 4° C. with 1 μg/ml biotinylated protein. Wells which had been loaded with biotinylated TRAIL-Fc served as a reference. The next day the plates were washed 3× with PBST (1×PBS admixed with 0.05% Tween 20 (Sigma, P7949)), treated with blocking buffer (PBST admixed with 3% BSA (Sigma A4503)), and again washed three times with PBST. 100 μl of the purified Fab (1 μg/ml) were added, and incubation was carried out at room temperature for 1 hour. After threefold washing with PBST, an HRP-coupled anti-hIgG (Fab-specific) (diluted 1:2500, Sigma, A0293) was added, and incubation took place at room temperature for 1 hour. The colour reaction was activated by addition of 50 μl of TMB (Invitrogen, 2023) and halted after 5-15 minutes by addition of 50 μl of H2SO4 (Merck, 1120801000). The colour reaction was monitored at 450 nm in a plate reader (Tecan). The signal strengths of the wells containing TRAIL-Fc were used as background values, and the signal-to-background ratios were calculated as summarized in Table 3.

hFGFR1β-Fc (IIIc) = target: T2, hFGFR1β-Fc (IIIc) (Homo sapiens, UniProt P11362); format: binding
T2 construct: purchased RnD Systems 661-FR
Method: as §1, §3

hFGFR3-Fc (IIIb) = target: T3, hFGFR3-Fc (IIIb) (Homo sapiens, UniProt P22607); format: binding
T3 construct: purchased RnD Systems 1264-FR
Method: as §1, §3

mFGFR2β-Fc (IIIb) = target: T4, mFGFR2β-Fc (IIIb) (Mus musculus, UniProt P21803); format: binding
T4 construct: purchased RnD Systems 708-MF
Method: as §1, §3

mFGFR3-Fc (IIIc) = target: T5, mFGFR3-Fc (IIIc) (Mus musculus, UniProt Q61851); format: binding
T5 construct: purchased RnD Systems 710-MF
T5 sequence (Q61851 21-369 limits assumed): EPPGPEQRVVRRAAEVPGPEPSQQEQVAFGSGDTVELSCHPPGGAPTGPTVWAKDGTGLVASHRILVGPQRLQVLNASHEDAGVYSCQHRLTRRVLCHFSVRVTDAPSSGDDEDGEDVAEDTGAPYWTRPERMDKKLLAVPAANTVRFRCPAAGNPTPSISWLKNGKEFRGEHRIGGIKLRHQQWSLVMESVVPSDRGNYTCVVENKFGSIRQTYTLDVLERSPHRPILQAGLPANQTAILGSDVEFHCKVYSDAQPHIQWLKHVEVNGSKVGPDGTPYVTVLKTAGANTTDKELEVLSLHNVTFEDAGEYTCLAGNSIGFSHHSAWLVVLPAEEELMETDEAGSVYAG
Method: as §1, §3

hFGFR4-Fc = target: T6, hFGFR4-Fc (Homo sapiens, UniProt P22455); format: binding
T6 construct: purchased RnD Systems 685-MF
Method: as §1, §3

hFGFR3-Fc (IIIc) = target: T7, hFGFR3-Fc (IIIc) (Homo sapiens, UniProt P22607); format: binding
T7 construct: purchased RnD Systems 766-FR
T7 sequence (P22607 23-375 limits assumed): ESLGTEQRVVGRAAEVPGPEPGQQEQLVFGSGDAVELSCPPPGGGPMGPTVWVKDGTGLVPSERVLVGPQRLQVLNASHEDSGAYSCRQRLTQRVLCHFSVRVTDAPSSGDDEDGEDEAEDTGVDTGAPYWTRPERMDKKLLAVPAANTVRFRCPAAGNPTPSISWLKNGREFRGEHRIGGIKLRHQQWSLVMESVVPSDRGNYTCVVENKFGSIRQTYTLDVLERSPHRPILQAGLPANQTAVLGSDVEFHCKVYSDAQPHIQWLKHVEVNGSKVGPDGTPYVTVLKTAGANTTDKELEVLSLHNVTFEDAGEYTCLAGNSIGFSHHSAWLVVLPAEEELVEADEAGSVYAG
Method: as §1, §3

hFGFR2β-Fc (IIIb) = target: T8, hFGFR2β-Fc (IIIb) (Homo sapiens, UniProt P21802); format: binding
T8 construct: purchased RnD Systems 665-FR
Method: as §1, §3

T8 sequence (P21802 22-680 isoform P21802-22 limits assumed): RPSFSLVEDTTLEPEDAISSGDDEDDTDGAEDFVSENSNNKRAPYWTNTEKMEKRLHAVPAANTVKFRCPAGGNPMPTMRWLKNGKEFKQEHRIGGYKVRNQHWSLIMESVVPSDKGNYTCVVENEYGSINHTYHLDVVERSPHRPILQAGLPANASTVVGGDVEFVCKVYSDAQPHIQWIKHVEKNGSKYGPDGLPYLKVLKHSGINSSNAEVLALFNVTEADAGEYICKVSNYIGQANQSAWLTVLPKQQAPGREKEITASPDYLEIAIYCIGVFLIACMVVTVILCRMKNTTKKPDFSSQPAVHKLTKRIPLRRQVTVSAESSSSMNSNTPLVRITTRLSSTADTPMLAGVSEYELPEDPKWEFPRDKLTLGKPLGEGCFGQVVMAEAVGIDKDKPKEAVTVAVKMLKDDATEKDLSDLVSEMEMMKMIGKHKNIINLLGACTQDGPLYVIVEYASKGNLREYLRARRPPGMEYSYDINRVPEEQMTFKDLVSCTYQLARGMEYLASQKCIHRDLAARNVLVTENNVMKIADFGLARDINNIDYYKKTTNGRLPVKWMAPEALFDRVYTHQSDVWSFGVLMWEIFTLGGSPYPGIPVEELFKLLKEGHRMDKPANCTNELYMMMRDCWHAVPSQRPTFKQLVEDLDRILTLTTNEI
T3 sequence (P22607 23-808 isoform P22607-2 limits assumed): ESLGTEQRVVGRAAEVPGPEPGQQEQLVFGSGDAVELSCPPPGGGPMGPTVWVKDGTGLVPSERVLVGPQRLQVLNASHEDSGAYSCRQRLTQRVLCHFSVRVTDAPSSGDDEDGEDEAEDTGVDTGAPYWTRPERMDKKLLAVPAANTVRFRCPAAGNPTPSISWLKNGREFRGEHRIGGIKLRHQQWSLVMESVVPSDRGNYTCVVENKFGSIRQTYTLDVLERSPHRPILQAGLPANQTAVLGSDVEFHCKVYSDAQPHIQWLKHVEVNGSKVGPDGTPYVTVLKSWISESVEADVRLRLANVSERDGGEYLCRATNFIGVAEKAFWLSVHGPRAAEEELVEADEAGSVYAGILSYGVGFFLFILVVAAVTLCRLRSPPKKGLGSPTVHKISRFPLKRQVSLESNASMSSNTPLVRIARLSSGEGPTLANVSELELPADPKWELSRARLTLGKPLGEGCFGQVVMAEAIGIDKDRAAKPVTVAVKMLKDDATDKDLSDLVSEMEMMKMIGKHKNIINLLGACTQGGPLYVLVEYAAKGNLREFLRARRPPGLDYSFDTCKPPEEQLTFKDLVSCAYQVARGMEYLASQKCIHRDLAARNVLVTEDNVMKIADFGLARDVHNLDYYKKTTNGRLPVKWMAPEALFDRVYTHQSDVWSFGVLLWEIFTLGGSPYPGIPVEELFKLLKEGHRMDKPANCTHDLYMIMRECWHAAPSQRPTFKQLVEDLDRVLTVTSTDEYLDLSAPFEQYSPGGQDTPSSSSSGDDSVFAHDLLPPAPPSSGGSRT
T1 sequence (P21802 22-822 isoform P21802-3 limits assumed): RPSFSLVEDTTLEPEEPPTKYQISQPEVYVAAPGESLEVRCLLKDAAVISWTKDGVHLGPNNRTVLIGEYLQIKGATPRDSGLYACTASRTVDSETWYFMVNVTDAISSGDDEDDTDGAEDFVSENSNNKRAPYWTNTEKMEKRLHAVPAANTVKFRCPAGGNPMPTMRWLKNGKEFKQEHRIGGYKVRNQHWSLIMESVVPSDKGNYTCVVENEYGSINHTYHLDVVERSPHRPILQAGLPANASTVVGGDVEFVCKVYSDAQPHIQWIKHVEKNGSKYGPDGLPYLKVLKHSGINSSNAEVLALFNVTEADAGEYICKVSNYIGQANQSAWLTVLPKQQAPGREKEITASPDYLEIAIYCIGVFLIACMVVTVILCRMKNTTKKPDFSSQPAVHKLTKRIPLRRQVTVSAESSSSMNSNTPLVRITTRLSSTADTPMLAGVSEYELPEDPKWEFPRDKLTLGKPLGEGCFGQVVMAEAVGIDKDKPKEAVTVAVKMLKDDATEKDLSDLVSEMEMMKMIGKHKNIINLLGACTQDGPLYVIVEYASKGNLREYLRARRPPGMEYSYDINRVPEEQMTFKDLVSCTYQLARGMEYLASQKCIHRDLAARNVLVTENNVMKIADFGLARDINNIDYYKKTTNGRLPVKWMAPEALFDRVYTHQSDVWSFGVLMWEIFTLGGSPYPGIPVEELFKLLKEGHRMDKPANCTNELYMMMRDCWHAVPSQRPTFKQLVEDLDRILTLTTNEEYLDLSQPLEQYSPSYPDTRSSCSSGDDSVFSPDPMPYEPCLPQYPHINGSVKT
T2 sequence (P11362 22-733 isoform P11362-3 limits assumed): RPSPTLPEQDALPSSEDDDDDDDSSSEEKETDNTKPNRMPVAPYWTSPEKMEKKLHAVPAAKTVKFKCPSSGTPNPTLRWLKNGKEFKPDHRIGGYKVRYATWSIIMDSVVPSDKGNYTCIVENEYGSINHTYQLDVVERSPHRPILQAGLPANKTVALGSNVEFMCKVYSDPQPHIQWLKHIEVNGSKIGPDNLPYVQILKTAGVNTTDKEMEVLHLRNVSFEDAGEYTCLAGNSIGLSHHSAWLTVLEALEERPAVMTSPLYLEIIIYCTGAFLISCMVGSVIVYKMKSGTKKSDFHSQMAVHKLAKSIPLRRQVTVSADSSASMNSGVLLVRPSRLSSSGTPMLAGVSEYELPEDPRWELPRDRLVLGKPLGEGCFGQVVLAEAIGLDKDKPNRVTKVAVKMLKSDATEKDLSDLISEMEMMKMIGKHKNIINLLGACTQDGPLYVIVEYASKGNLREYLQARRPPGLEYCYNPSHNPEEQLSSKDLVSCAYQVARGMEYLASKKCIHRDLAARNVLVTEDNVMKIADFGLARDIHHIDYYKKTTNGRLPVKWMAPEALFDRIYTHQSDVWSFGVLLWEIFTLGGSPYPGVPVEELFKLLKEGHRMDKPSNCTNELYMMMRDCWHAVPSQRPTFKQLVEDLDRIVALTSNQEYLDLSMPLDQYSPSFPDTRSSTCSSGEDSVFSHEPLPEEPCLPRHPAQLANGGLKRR
T4 sequence (P21803 22-707 isoform P21803-2 limits assumed): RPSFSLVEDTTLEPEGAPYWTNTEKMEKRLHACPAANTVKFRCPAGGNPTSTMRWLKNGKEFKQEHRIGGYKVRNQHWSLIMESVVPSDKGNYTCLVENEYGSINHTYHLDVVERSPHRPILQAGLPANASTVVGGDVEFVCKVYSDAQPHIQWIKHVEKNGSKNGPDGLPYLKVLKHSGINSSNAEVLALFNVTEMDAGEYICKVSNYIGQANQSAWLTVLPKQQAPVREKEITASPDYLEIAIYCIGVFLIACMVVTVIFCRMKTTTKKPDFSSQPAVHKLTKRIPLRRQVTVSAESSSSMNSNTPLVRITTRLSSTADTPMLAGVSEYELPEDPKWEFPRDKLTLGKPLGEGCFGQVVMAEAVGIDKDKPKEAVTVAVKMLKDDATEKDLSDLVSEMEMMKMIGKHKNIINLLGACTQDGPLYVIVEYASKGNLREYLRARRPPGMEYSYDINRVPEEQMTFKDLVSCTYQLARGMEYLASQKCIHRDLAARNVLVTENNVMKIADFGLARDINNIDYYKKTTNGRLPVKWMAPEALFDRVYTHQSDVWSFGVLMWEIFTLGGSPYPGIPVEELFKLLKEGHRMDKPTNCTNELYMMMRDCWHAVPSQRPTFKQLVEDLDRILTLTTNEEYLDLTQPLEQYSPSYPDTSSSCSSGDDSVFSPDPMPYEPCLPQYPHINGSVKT

B1: M048-D01 (antibody, V domains shown)
VH: EVQLLESGGGLVQPGGSLRLSCAASGFTFSSYAMSWVRQAPGKGLEWVSAISGSGTSTYYADSVKGRFTISRDNSKNTLYLQMNSLRAEDTAVYYCARVRYNWNHGDWFDPWGQGTLVTVSS
VL: QSVLTQPPSASGTPGQRVTISCSGSSSNIGNNYVSWYQQLPGTAPKLLIYENYNRPAGVPDRFSGSKSGTSASLAISGLRSEDEADYYCSSWDDSLNYWVFGGGTKLTVL
Signal-to-background ratio, hFGFR2β-Fc (IIIc) (hFGFR2β-Fc (IIIc)): +++ (+++: >5)
Signal-to-background ratio, hFGFR1β-Fc (IIIb) (hFGFR1β-Fc (IIIb)): 0 (0: <2)
Signal-to-background ratio, mFGFR2β-Fc (IIIc) (mFGFR2β-Fc (IIIc)): +++ (+++: >5)
Signal-to-background ratio, hFGFR2α-Fc (IIIb) (hFGFR2α-Fc (IIIb)): +++ (+++: >5)
Signal-to-background ratio, hFGFR1β-Fc (IIIc) (hFGFR1β-Fc (IIIc)): 0 (0: <2)
Signal-to-background ratio, hFGFR3-Fc (IIIb) (hFGFR3-Fc (IIIb)): 0 (0: <2)
Signal-to-background ratio, mFGFR2β-Fc (IIIb) (mFGFR2β-Fc (IIIb)): +++ (+++: >5)
Signal-to-background ratio, mFGFR3-Fc (IIIc) (mFGFR3-Fc (IIIc)): 0 (0: <2)
Signal-to-background ratio, hFGFR4-Fc (hFGFR4-Fc): 0 (0: <2)
Signal-to-background ratio, hFGFR3-Fc (IIIc) (hFGFR3-Fc (IIIc)): 0 (0: <2)
Signal-to-background ratio, hFGFR2β-Fc (IIIb) (hFGFR2β-Fc (IIIb)): +++ (+++: >5)
